Tests used:
green fluorescent casein = experiment: Total protease activity of culture supernatants against fluorescent casein; type: biochemical; conditions: 1 L fermentor, pH 5.5, casein FL
Experimental: The total protease activity of culture supernatant from the quadruple deletion strain M307 was then measured and compared with culture supernatants from the triple deletion strain M277 and the wild type strain M124. Each strain was grown in 2 liter shake flasks with 300 ml TrMM containing 40 g/l lactose, 20 g/l spent grain extract, and 100 mM PIPPS at pH 5.5. Day 7 supernatant samples were taken for total protease assay. The total protein concentrations of the supernatants were measured using the BCA assay with bovine immunoglobulin as the standard. The supernatants were diluted serially 1:2 in sodium citrate buffer at pH 5.5. […] The fluorescence was measured after 1 hour at 485 nm excitation and 530 nm emission.
The full length antibody yield calculated was 20% higher in the gap1 deletion strain from the day 6 sample. […] From the fermentor supernatants, the total protease activity against casein was measured. […]
The protein concentrations were determined from all supernatant samples from day 2-7. […] The fluorescence from the wells was measured after 2, 3, and 4 hours. The readings were done on the Varioskan fluorescent plate reader using 485 nm excitation and 530 nm emission.
The protease activity from the cultivations listed in Table 22.4 was measured in order to determine how the total protease activities were affected by the RNAi. […]

[1] = test system: proteases in supernatant from the 6-fold protease deletion strain M400; experiment: Protease stability of proteins spiked into supernatant of the 6-fold protease deletion strain; type: biochemical, Trichoderma reesei; conditions: pepstatin A 50 μM; SBTI 0.2 mg/ml; pH 4.2, 20 hours, 37°C
Experimental: The protease stability of the model proteins IGF1, hGH, and IFNα2b were analyzed by spiking them into supernatant from the 6-fold protease deletion strain (Δpep1Δtsp1Δslp1Δgap1Δgap2Δpep4) M400. The supernatant was collected from a large shake flask culture CAH15. The undiluted supernatant from the shake flask cultivation CAH15 was incubated with the purified model proteins with and without pepstatin A (50 μM) and SBTI (0.2 mg/ml) inhibitors for 20 hours at 37° C. The 5 day culture supernatant pH was around 4.2. The reaction containing 0.05 μg μl of model protein was sampled after 20 hours. 50 mM sodium citrate pH 4.0 spiked with model proteins (0.05 g 1) was used as a buffer control.
From each reaction 10 μl was loaded into an 18% SDS PAGE gel and run for 30 minutes at 200 V. The proteins in the gel were then transferred to nitrocellulose for immunoblotting. The nitrocellulose membrane was blocked for 1 hour at room temperature with 5% milk in TBST buffer. The individual blots were probed with their specific primary antibody to detect the appropriate model protein for 1 hour at room temperature on a shaker. The mouse anti-IGF1 antibody (R&D systems #mab291) was used at 2 μg/ml diluted in TBST. The mouse anti-rhGH antibody (Abeam #ab51232) was used at 2 μg/ml diluted in TBST. The mouse anti-IFNα2b antibody (Abeam #ab9386) was used at 1 μg/ml diluted in TBST. […]

B1: SBTI: soybean trypsin inhibitor, trypsin and subtilisin inhibitor (protein)
chain: DFVLDNEGNPLENGGTYYILSDITAFGGIRAAPTGNERCPLTVVQSRNELDKGIGTIISSPYRIRFIAEGHPLSLKFDSFAVIMLCVGIPTEWSVVEDLPEGPAVKIGENKDAMDGWFRLERVSDDEFNNYKLVFCPQQAEDDKCGDIGISIDHDDGTRRLVVSKNKPLVVQFQKLDKESL
B1 was tested, and the “protease activity of M507 culture supplemented with inhibitor” value (green fluorescent casein) was “protease activity also dropped from day 6 until day 8” and the “stabilisation of hGH, IFNα2b and IGF1 in supernatant” value [1] was “only a small benefit for product stability”.

Source: patent publication US11180767B2, “Protease deficient filamentous fungal cells and methods of use thereof” (GLYKOS FINLAND OY, priority 2012, dated 2021)
